Tests used:
[1] = biological target: T1, maltose-binding protein-fused CD30 (Homo sapiens, UniProt P28908-1); test: SPR; Biacore T200; cAb or BpAb captured on anti-human Fc (CM5), CD30-MBP flowed at 0, 2 and 20 nM (0, 20 and 200 nM for T426), contact 90 s, dissociation 300 s; 'at a rough level'; details: both partners purified
T1 construct: signal peptide in the construct; human CD30 extracellular domains, residues 1-336; also called CD30-MBP; source: Expi293, purified (Ni-NTA, Superdex200); not shown: MBP, C-terminal, kept

CD30 fused to rabbit Fc = biological target: T2, CD30 fused to rabbit Fc (Homo sapiens, UniProt P28908-1); test: ELISA; mutual competition: indicator cAb (0.75 μg/mL) captured on goat anti-human IgG Fc; CD30-rFc (50 ng/mL) pre-incubated overnight at 4 °C with competitor cAb (2.8 μg/mL); bound CD30-rFc probed with anti-rabbit IgG; details: one partner purified
T2 construct: signal peptide in the construct; human CD30 whole extracellular domains, NP_001234.3 amino acids 1-383; also called CD30-rFc; source: HEK293T, transfected, harvested from the culture supernatant; not shown: hinge and Fc (rabbit IgG1), C-terminal, kept
T2 sequence (P28908 19-383): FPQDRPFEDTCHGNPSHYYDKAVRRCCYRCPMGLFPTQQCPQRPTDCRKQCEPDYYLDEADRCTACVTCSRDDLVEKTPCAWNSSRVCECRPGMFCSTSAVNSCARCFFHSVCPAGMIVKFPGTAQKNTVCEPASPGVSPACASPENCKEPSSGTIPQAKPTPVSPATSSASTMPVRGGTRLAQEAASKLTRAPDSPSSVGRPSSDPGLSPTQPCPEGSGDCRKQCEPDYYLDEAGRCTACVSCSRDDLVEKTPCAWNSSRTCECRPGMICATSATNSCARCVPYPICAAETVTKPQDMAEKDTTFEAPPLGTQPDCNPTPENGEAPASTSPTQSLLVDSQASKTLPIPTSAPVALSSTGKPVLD

T1 sequence (P28908 19-336): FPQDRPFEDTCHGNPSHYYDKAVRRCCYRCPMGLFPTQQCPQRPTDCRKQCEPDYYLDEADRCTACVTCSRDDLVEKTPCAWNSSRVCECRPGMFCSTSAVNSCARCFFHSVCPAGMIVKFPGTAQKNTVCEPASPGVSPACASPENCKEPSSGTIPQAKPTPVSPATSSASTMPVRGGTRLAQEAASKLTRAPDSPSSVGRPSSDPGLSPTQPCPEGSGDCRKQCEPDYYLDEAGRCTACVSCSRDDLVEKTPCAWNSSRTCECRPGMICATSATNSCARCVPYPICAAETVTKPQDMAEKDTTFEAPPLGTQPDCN

Binder | binding result [1] | binding result (CD30 fused to rabbit Fc)
T427 cAb (antibody, V domains shown) VH: QVQLQQPGTELVRPGASVKLSCKASGFSFTSYWMNWVKQRPGQGLEWIGMIHPSDSETRLNQKFKDRATLTVDKSSSTAYMQLSSPTSEDSAVYYCASEMDYYFAMDYWGQGTSVTVSS VL: DIVLTQSPTSLAVSLGQRATISCRASESVDSYGNSFMHWFQQKPGQPPKLLIYRASNLESGIPARFSGSGSWTDFTLTINPVEADDVATYYCQQSNEDPRTFGGGTKLEIK | binds | binds
T25 cAb (antibody, V domains shown) VH: QVTLKESGPGILQPSQTLSLTCSFSGFSLNTSGVGVGWIRQPSGKGLEWLAHIWWDDDERYNPVLKSRLTISKDTSSNQVFLKIANVDTADSATYYCVRSMVAWFPYWGRGTLVTVSA VL: DIVMSQSPSSLAVSVGEKFTVNCKSSQSLLYSSNQKNFLAWYQQKPGQSPKLLIYWASTRESGVPDRFIGSGSGTDFTLTISSVKAEDLAVYYCQQHYRYPWTFGGGTKLEIK | binds | –
T107 cAb (antibody, V domains shown) VH: QVQLQQSGPELVRPGVSVKISCKGSGYSFPDYPLHWVKQSHAKSLEWIGIILTYSGNTNYNQNFKGKATMTVDTSSNTAYLELARLTSEDSAIYYCATFYYGYDGAFDYWGQGTTLTVSS VL: DIVMTQSPSSLTVTAGEKVTMSCKSSQSLLNSGNQKNYLTWYQQKPGQPPKLLIHWASTRESGVPDRFTGSGSGTDFILTITSVQAEDLAVYYCQNDYTYPLTFGGGTKLELK | binds | binds
T104 cAb (antibody, V domains shown) VH: QIQLVQSGPELKKPGETVKISCKASGYTFTDYSMHWVKQAPGKGLKWMGWINTETGEPTYADDFKGRFAFSLETSASTAYLQINNLKNEDTATYFCTEGYVFDFWGQGTTLTVSS VL: DILLTQSPAILSVSPGERVSFSCRASRSIGTSIHWYQQRTNGSPRLLINYASESISGIPSRFSGSGSGTDFTLSINSVESEDIADYYCQQSNSWPLTFGAGTKLELK | binds | –
AC10 cAb (antibody, V domains shown) VH: QIQLQQSGPEVVKPGASVKISCKASGYTFTDYYITWVKQKPGQGLEWIGWIYPGSGNTKYNEKFKGKATLTVDTSSSTAFMQLSSLTSEDTAVYFCANYGNYWFAYWGQGTQVTVSA VL: DIVLTQSPASLAVSLGQRATISCKASQSVDFDGDSYMNWYQQKPGQPPKVLIYAASNLESGIPARFSGSGSGTDFTLNIHPVEEEDAATYYCQQSNEDPWTFGGGTKLEIK | binds | binds
T105 cAb (antibody, V domains shown) VH: QVTLKESGPGILQPSQTLSLTCSFSGFSLSTSGMGVSWIRQPSGKDLEWLAHIYWDDDKRYNPSLKSRLTISKDTSSNQVFLKITSVDTADTATYYCARRADGLYFYLDVWGAGTTVTVSS VL: DIVMTQSQKFMSTSVGDRVSVTCKASQNVNTNVAWYQQKPGQSPEALIYSASYRYSGVPDRFTGSGSGTDFTLTISNVQSEDLAEYFCQQYNSYPLTFGSGTKLEIK | binds | binds
T6 cAb (antibody, V domains shown) VH: QVQLKESGPGLVTPSQSLSITCTVSGFSLSKYSIHWVRQPPGRGLEWLGMIWGVENTDYNSALKSRLSISKDNSKSQVFLKMNSLQSDDTAMYYCARKDLGLYGMNYWGQGISVTVSA VL: DIVMTQSQKFMSTSVGDRVSVTCKASQNVGTNVAWYQQKPGQSPKALFYSASYRYSGVPDRFIGSGSGTVFTLTISNVQSEDLAEYFCQQYNTYPLTFGSGTKLEIE | binds | –
T426 cAb (antibody, V domains shown) VH: EVQLQQSGAELVKPGASVKLSCTASGFNVKDTYVHWVKQRPEQGLEWIGRIDPANSDTKYDSKFQGKATTSADTSSNTAYLQLNSLTSEDTAVYYCASGTDDYYWYFDVWGAGTTVTVSS VL: DIVLTQSPASLAVSLGQRATISCRASKSVSTPAHTYMHWYQQKPGQPPKLLIYLASNLESGVPARFSGSGSGTDFTLNIHPVEVEDAATYYCQHSRVLPYTFGGGTKLEIK | – | binds
T405 cAb (antibody, V domains shown) VH: QVQLQQIGAELVRPGASVKLSCKASGYTFNNYWINWVKQRPGQGLEWIGNIYPSDSRSNYNQKFKDKATLTVDKPSSTAYMQLSSPTSEDSAVYYCTLGSYWGQGTLVTVSA VL: not shown | binds | –
